The source of these data is patent US20240279281A1, “Peptide Inhibitors of Interleukin-23 Receptor” (Janssen Pharmaceutica NV, priority 2023, published 2024).

In the assay the target is T1, interleukin-23 receptor (IL-23R), Q5VWK5.
T1 chain: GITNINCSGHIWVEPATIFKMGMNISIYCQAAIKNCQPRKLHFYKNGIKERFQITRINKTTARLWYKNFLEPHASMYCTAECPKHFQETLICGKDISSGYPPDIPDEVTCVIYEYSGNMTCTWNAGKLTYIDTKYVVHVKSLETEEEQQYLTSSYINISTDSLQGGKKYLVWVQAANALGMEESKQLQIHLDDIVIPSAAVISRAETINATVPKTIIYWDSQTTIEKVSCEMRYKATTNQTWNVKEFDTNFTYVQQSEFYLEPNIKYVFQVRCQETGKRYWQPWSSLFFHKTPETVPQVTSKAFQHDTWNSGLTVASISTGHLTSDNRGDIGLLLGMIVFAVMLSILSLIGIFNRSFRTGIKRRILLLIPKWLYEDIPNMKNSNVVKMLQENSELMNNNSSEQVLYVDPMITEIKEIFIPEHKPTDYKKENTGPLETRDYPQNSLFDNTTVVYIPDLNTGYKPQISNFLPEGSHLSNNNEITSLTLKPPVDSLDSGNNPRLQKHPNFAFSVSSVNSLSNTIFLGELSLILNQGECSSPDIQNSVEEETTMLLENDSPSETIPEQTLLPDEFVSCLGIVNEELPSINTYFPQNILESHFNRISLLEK
In words: cell-based or functional assay.

Starred links: 1 amine or outer side, 2 acyl side, 3 side chain; linkers in the order of their positions; H or OH if unused. Positions of bridges follow the written chain, without caps; N, C: chain ends. Non-standard residues stand in square brackets, D forms with d. No end group written: not given here. X7 = 2‑amino‑3‑(5-methylpyridin-3-yl)propanoic acid, Cc1cncc(CC(N[*:1])C(=O)[*:2])c1; N‑methyl‑N‑acetyllysine = N-methyl-N-acetyllysine; Phe(4-OMe) = COc1ccc(C[C@H](N[*:1])C(=O)[*:2])cc1; Trp(7-Br) = N[C@@H](Cc1c[nH]c2c(Br)cccc12)C(=O)O; 2Nal(6-OH) = N[C@@H](Cc1ccc2cc(O)ccc2c1)C(=O)O; Trp(7-Me) = Cc1cccc2c(C[C@H](N)C(=O)O)c[nH]c12; dLys(Me3) = C[N+](C)(C)CCCC[C@@H](N)C(=O)O; AEF = NCCOc1ccc(C[C@H](N)C(=O)O)cc1; 3Pal = N[C@@H](Cc1cccnc1)C(=O)O; Aad = N[C@@H](CCCC(=O)O)C(=O)O; Pen = CC(C)(S)[C@H](N)C(=O)O; αMeK = C[C@](N)(CCCCN)C(=O)O; αMeC = C[C@](N)(CS)C(=O)O; lipid = not defined here; Thp = NC1(C(=O)O)CCOCC1; PEG = not defined here; Sar = CNCC(=O)O

B1: SEQ ID NO: 380 (peptide)
peptide: [Pen]NT[Trp(7-Me)]K(Ac)[Pen][2‑amino‑3‑(4-(2-aminoethoxy)phenyl)propanoic acid][2‑amino‑3‑(6-hydroxynaphthalen-2-yl)propanoic acid][Thp]EN[3Pal][Sar]
modifications: not fully specified (bridges); ends and bridges not checked
Take B1: the IL23R Reporter Assay IC50 was below 10 nM.

B2: SEQ ID NO: 388 (peptide)
peptide: [dLys(Me3)][Pen]NT[Trp(7-Me)]K(Ac)[Pen][2‑amino‑3‑(4-(2-aminoethoxy)phenyl)propanoic acid][2‑amino‑3‑(6-hydroxynaphthalen-2-yl)propanoic acid][Thp]EN[3Pal][Sar]
modifications: not fully specified (bridges); ends and bridges not checked
For the molecule B2, the IL23R Reporter Assay IC50 was below 10 nM and the PBMC pSTAT3 IC50 was below 0.01 nM.

B3: SEQ ID NO: 331 (peptide)
peptide: [Pen]ET[Trp(7-Me)]K(Ac)[Pen][AEF][2Nal(6-OH)][Thp]EN[3Pal][Sar]
modifications: not fully specified (bridges); ends and bridges not checked
Regarding B3, the IL23R Reporter Assay IC50 was below 10 nM.

B4: SEQ ID NO: 306 (peptide)
peptide: [Pen]NT[Trp(7-Me)]K(Ac)[Pen][Phe(4-OMe)][2Nal(6-OH)][αMeK]LN[3Pal][Sar]
modifications: not fully specified (bridges); ends and bridges not checked
B4 registered an IL23R Reporter Assay IC50 below 10 nM.

B5: SEQ ID NO: 334 (peptide)
peptide: [Pen]NT[2‑amino‑3‑(benzo(b)thiophen-3-yl)propanoic acid]K(Ac)[Pen][AEF][2Nal(6-OH)][Thp]EN[3Pal][Sar]
modifications: not fully specified (bridges); ends and bridges not checked
In turn, B5 yielded an IL23R Reporter Assay IC50 below 10 nM.

B6: SEQ ID NO: 308 (peptide)
peptide: [Pen]NT[Trp(7-Me)]K(Ac)[Pen][Phe(4-OMe)][2Nal(6-OH)][αMeK]LN[3Pal][Sar]
modifications: not fully specified (bridges); ends and bridges not checked
On to B6, for which the IL23R Reporter Assay IC50 is below 10 nM.

B7: SEQ ID NO: 313 (peptide)
peptide: [Pen]NT[Trp(7-Br)]K(Ac)[Pen][AEF][2Nal(6-OH)][Thp]EN[3Pal][Sar]
modifications: not fully specified (bridges); ends and bridges not checked
Molecule B7 came in with an IL23R Reporter Assay IC50 below 10 nM.

B8: SEQ ID NO: 348 (peptide)
peptide: K[Pen]NT[Trp(7-Me)]K[Pen][AEF][2Nal(6-OH)][Thp][Aad]N[3Pal][Sar]
modifications: not fully specified (residue 6, bridges); ends and bridges not checked
B8: the IL23R Reporter Assay IC50 is below 10 nM.

B9: SEQ ID NO: 290 (peptide)
peptide: [N‑amino‑O‑(2-(2-(methylamino)ethoxy)ethyl)‑D‑serine][Pen]NT[Trp(7-Me)][N‑methyl‑N‑acetyllysine][Pen][AEF][2Nal(6-OH)][Thp]DN[3Pal][Sar]
modifications: disulfide 2-7 (inferred); ends not checked
Molecule B9 came in with an IL23R Reporter Assay IC50 below 10 nM and a PBMC pSTAT3 IC50 below 0.1 nM.

B10: SEQ ID NO: 305 (peptide)
peptide: [Pen]NT[Trp(7-Me)]K(lipid)[Pen]F[2Nal(6-OH)][αMeK]LN[3Pal][Sar]
modifications: not fully specified (bridges); ends and bridges not checked; also: lipid group unspecified
Molecule B10 gave an IL23R Reporter Assay IC50 below 10 nM.

B11: SEQ ID NO: 303 (peptide)
peptide: [Pen]LT[Trp(7-Me)]K(lipid)[Pen]F[2Nal(6-OH)][αMeK]LN[3Pal][Sar]
modifications: disulfide 1-6 (inferred); ends not checked; also: Lys5 lipidated, lipid not given here
Molecule B11 showed an IL23R Reporter Assay IC50 below 10 nM.

B12: SEQ ID NO: 326 (peptide)
peptide: [Pen]ET[Trp(7-Me)]K(PEG)[Pen][AEF][2Nal(6-OH)][Thp]EN[3Pal][Sar]
modifications: not fully specified (bridges); ends and bridges not checked; also: PEG chain on Lys unspecified
For B12, the IL23R Reporter Assay IC50 is below 10 nM.

B13: SEQ ID NO: 304 (peptide)
peptide: [Pen]LT[Trp(7-Me)]K(Ac)[Pen]F[2Nal(6-OH)][αMeK]LN[3Pal][Sar]
modifications: disulfide 1-6 (inferred); ends not checked
For B13, the IL23R Reporter Assay IC50 was below 10 nM.

B14: SEQ ID NO: 378 (peptide)
peptide: [Pen]NT[Trp(7-Me)]K(Ac)[Pen][2‑amino‑3‑(4-(2-aminoethoxy)phenyl)propanoic acid][2‑amino‑3‑(6-hydroxynaphthalen-2-yl)propanoic acid][Thp]EN[3Pal][Sar]
modifications: not fully specified (bridges); ends and bridges not checked
As for B14, the IL23R Reporter Assay IC50 is below 10 nM and the PBMC pSTAT3 IC50 is below 0.01 nM.

B15: SEQ ID NO: 340 (peptide)
peptide: [(R)‑3‑carboxy‑2‑(4-(((R)-5-carboxy-5-hydrazineylpentyl)amino)-4-oxobutanamido)‑N,N,N‑trimethylpropan‑1‑aminium][Pen]NT[Trp(7-Me)]K(Ac)[Pen][AEF][2Nal(6-OH)][Thp]EN[3Pal][Sar]
modifications: not fully specified (bridges); ends and bridges not checked
The molecule B15 returned an IL23R Reporter Assay IC50 below 10 nM and a PBMC pSTAT3 IC50 below 0.01 nM.

B16: SEQ ID NO: 5 (peptide)
peptide: CNT[Trp(7-Me)]K(Ac)[αMeC][2‑amino‑3‑(4-(2-aminoethoxy)phenyl)propanoic acid][2‑amino‑3‑(6-hydroxynaphthalen-2-yl)propanoic acid][Thp]K(Ac)N[3Pal][Sar]
modifications: ends and bridges not checked
As to B16, the IL23R Reporter Assay IC50 was below 10 nM and the PBMC pSTAT3 IC50 is below 0.01 nM.

B17: SEQ ID NO: 382 (peptide)
peptide: [Pen]ET[Trp(7-Me)][N,N,N‑trimethylhomolysine][Pen][2‑amino‑3‑(4-(2-(methylamino)ethoxy)phenyl)propanoic acid][2‑amino‑3‑(6-hydroxynaphthalen-2-yl)propanoic acid][Thp]EN[3Pal][Sar]
modifications: not fully specified (bridges); ends and bridges not checked
As to B17, the IL23R Reporter Assay IC50 was below 10 nM and the PBMC pSTAT3 IC50 was below 0.01 nM.

B18: SEQ ID NO: 307 (peptide)
peptide: [Pen]NT[Trp(7-Me)]K(lipid)[Pen][Phe(4-OMe)][2Nal(6-OH)][αMeK]LN[3Pal][Sar]
modifications: not fully specified (bridges); ends and bridges not checked; also: lipid group unspecified
On to B18, for which the IL23R Reporter Assay IC50 was below 10 nM.

B19: SEQ ID NO: 372 (peptide)
peptide: [Pen]ET[Trp(7-Me)]K(Ac)[Pen][2‑amino‑3‑(4-(2-aminoethoxy)phenyl)propanoic acid][2‑amino‑3‑(6-hydroxynaphthalen-2-yl)propanoic acid][Thp]EN[3Pal][Sar]
modifications: not fully specified (bridges); ends and bridges not checked
For B19, the IL23R Reporter Assay IC50 is below 10 nM and the PBMC pSTAT3 IC50 was below 0.01 nM.

B20: SEQ ID NO: 312 (peptide)
peptide: R[Pen]NT[Trp(7-Br)]K(Ac)[Pen][AEF][2Nal(6-OH)][Thp]EN[3Pal][Sar]
modifications: not fully specified (bridges); ends and bridges not checked
In the case of B20, the IL23R Reporter Assay IC50 was below 10 nM.

B21: SEQ ID NO: 48 (peptide)
peptide: R[Pen]NT[Trp(7-Me)]K(Ac)[Pen][5‑(4-(2-amino-2-carboxyethyl)phenoxy)‑N,N,N‑trimethylpentan‑1‑aminium][2‑amino‑3‑(6-hydroxynaphthalen-2-yl)propanoic acid][Thp]EN[X7][Sar]
modifications: disulfide 2-7 (inferred); ends not checked
Molecule B21 came in with an IL23R Reporter Assay IC50 below 10 nM.

B22: SEQ ID NO: 347 (peptide)
peptide: [Pen]NT[Trp(7-Me)]K(Ac)[Pen][AEF][2Nal(6-OH)][Thp]EN[3Pal][Sar]
modifications: not fully specified (bridges); ends and bridges not checked
Regarding B22, the IL23R Reporter Assay IC50 was below 10 nM and the PBMC pSTAT3 IC50 was below 0.1 nM.

B23: SEQ ID NO: 379 (peptide)
peptide: [Pen]NT[Trp(7-Me)]K(Ac)[Pen][2‑amino‑3‑(4-(2-aminoethoxy)phenyl)propanoic acid][2‑amino‑3‑(6-hydroxynaphthalen-2-yl)propanoic acid][Thp]EN[3Pal][Sar]
modifications: not fully specified (bridges); ends and bridges not checked
Turning to B23, the IL23R Reporter Assay IC50 is below 10 nM.
